Data set [1] addresses hSSRP1-PH2 (Leu101-Thr195) (human). The data set is described as follows: SEC; molecular weight calibration of the single protein in solution.
The next data set addresses hSSRP1-HMG520-616 (Homo sapiens, UniProt Q08945 520-616). The data set is described as follows: EMSA; EMSA: 5 uM DNA, 137 mM NaCl, 2.7 mM KCl, 10 mM Na2HPO4, 2 mM KH2PO4 pH 7.4, 30 min on ice, 12% native PAGE; single-molecule: 10 mM Tris, 20 mM EDTA, 25 mM KCl. To be noted: protein: recombinant; tags: GST or His-SUMO fusion vector; GST cleaved; label: 5'-FAM on strand 1; blunt.

A further data set has as its target hSSRP1-HMG546-616 (Homo sapiens, UniProt Q08945 546-616). The description is as above. The settings on record: protein: recombinant; tags: GST or His-SUMO fusion vector; GST cleaved; label: 5'-FAM on strand 1; blunt.

Sequence of hSSRP1-HMG546-616 (Q08945 546-616): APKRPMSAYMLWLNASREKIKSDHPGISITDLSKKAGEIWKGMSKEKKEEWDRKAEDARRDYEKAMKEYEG
Sequence of hSSRP1-HMG520-616 (Q08945 520-616): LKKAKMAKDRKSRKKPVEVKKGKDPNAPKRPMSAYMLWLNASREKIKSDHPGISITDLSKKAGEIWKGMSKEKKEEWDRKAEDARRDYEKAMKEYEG

With “hSSRP1-PH2 (Leu101-Thr195) (domain or fragment)”, in data set [1], the stoichiometry N was found to be 4.

B1: 15 bp FAM GT-rich dsDNA (dsDNA)
DNA 1: GGGGTGATTGTTCAG
DNA 2: CTGAACAATCACCCC
B1: the binding result is on record as “binds” with hSSRP1-HMG520-616 and “no binding” with hSSRP1-HMG546-616.
